Article PMC10159624
Values joined by “and” are separate entries in the source; they are usually repeats but may differ in a detail not shown here. Identical values can stand only once.

Columns and labels:
Assay in all cases: EMSA
Conditions in all cases: 25 mM Tris pH 8.0, 100 mM KCl, 10 mM MgCl2, 10% glycerol, 1 mM TCEP, +/- 5 mM ATP-MgOAc2, 20 pM dsRNA, 30 min at 4 C; 5% native PAGE in 0.5x TBE at 4 C
[1] = test system: AncD1ARTH/LOPH/DEUT HEL-DUF (reconstructed ancestor (arthropod/lophotrochozoan/deuterostome Dicer-1, ML tree))
[2] = test system: AncD1D2 HEL-DUF (reconstructed ancestor (animal Dicer-1/Dicer-2, ML tree))
[3] = test system: AncD1DEUT HEL-DUF (reconstructed ancestor (deuterostome Dicer-1, ML tree))
[4] = test system: AncD1LOPH/DEUT HEL-DUF (reconstructed ancestor (lophotrochozoan/deuterostome Dicer-1, ML tree))
[5] = test system: AncD1VERT HEL-DUF (reconstructed ancestor (vertebrate Dicer-1, ML tree))

Row | Sequence | Kd [1] | Kd [2] | Kd [3] | Kd [4] | Kd [5]
1 | GGGAAGCUCAGAAUAUUGCACAAGUAGAGCUUCUCGAUCCCC / GGAUCGAGAAGCUCUACUUGUGCAAUAUUCUGAGCUUCCCGG [42-bp 3'ovr dsRNA] | 40.1 nM and 17.3 nM | 6.5 nM and 15.9 nM | 140 nM and 150 nM | 49 nM and 90.8 nM | 538 nM and 500 nM
2 | GGGAAGCUCAGAAUAUUGCACAAGUAGAGCUUCUCGAUCCCC / GGGGAUCGAGAAGCUCUACUUGUGCAAUAUUCUGAGCUUCCC [42-bp BLT dsRNA] | 23.8 nM and 17.5 nM | 3.4 nM and 6.4 nM | 145 nM and 132 nM | 38 nM and 60.9 nM | 502 nM and 592 nM
